Target: T1, CEPR2^KD-His (Arabidopsis thaliana, UniProt Q9C7T7 642-977)
T1 sequence (looked up): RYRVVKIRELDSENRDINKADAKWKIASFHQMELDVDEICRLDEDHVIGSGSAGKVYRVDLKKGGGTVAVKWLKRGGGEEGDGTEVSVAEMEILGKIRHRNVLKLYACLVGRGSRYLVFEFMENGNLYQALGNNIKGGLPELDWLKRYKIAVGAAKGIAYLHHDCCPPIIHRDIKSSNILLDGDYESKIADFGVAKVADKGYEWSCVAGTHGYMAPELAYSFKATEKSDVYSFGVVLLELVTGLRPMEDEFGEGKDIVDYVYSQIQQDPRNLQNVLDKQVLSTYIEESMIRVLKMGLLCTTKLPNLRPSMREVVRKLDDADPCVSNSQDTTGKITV
Assay: pull-down

- binding result: binds
B1: NRT1.2^loop-GST (domain or fragment, Arabidopsis thaliana, UniProt Q8H157 232-346, looked up)
chain: SGSRFYRNKIPCGSPLTTILKVLLAASVKCCSSGSSSNAVASMSVSPSNHCVSKGKKEVESQGELEKPRQEEALPPRAQLTNSLKVLNGAADEKPVHRLLECTVQQVEDVKIVLK
